Test [1] has as its target C4b (soluble) (Homo sapiens) (UniProt P0C0L4). To be noted: cited from earlier work.
Test [2] concerns the target C4b (surface-bound) (Homo sapiens) (UniProt P0C0L4). Particulars: cited from earlier work.
In test [3] the target is C3bC4b complex (on EMan, average) C3b+C4b (Homo sapiens, UniProt P01024). The experiment in a line: 125I-C4BP equilibrium binding.
Test [4] addresses T1, C4b (on zymosan, average) C4b (Homo sapiens, UniProt P0C0L5).
T1 chain 1: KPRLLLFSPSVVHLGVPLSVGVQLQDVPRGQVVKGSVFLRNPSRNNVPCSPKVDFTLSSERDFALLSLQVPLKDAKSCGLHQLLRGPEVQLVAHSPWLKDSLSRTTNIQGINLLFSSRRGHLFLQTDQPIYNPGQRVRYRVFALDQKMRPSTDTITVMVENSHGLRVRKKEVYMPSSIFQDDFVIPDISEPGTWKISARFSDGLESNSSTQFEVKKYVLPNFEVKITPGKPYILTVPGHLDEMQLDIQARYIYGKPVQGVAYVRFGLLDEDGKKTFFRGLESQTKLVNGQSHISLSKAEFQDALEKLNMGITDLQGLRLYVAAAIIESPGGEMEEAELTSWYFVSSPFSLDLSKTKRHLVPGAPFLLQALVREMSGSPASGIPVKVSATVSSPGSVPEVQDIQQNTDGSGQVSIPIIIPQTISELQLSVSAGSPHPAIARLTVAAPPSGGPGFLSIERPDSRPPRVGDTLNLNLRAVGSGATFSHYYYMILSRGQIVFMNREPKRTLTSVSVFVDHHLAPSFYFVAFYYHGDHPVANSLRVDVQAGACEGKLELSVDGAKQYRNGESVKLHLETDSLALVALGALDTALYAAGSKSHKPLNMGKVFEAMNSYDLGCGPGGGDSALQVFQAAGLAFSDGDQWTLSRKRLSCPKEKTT
T1 chain 2: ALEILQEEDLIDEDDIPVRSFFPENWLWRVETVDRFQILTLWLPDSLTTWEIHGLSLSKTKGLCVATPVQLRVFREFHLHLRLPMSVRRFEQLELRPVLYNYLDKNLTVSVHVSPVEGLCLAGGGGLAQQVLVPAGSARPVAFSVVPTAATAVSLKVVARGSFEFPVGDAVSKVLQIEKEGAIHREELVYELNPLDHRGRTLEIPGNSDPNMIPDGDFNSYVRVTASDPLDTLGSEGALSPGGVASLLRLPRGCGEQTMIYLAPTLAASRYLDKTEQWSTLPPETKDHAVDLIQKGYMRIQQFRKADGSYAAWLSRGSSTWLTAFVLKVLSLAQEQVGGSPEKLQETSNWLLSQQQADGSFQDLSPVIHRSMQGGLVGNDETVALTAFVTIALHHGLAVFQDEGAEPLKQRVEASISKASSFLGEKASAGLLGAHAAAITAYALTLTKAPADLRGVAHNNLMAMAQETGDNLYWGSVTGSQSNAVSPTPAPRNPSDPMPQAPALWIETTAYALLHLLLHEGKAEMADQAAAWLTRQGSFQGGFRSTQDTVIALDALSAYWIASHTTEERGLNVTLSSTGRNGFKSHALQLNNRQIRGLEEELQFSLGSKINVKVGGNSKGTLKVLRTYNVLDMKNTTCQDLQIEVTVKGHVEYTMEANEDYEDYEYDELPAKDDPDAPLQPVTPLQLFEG
T1 chain 3: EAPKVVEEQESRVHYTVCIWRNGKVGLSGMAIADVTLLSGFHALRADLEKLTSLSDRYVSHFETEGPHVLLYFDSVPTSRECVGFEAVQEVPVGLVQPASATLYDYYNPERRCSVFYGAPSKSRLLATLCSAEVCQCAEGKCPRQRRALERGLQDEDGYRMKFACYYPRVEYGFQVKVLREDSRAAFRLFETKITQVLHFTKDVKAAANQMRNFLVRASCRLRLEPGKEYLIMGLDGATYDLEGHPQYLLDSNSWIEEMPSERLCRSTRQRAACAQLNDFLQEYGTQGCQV
The experiment in a line: 125I-C4BP equilibrium binding.

Test [5] addresses C3bC4b complex (on zymosan, average) C3b+C4b (Homo sapiens, UniProt P01024). As to the kind of experiment: 125I-C4BP equilibrium binding.
Test [6] concerns the target C3bC4b complex (on zymosan, 54,000 C4b/Zym) C3b+C4b (Homo sapiens, UniProt P01024). As to the kind of experiment: 125I-C4BP equilibrium binding.

As usually defined, the Kd is the concentration at which binding is half-saturated.

Where “and” joins values, the source holds several entries; their conditions need not be identical. Equal values may be shown once.

Sequence of C3bC4b complex (on zymosan, average) C3b+C4b (P01024 23-1663, one chain of several): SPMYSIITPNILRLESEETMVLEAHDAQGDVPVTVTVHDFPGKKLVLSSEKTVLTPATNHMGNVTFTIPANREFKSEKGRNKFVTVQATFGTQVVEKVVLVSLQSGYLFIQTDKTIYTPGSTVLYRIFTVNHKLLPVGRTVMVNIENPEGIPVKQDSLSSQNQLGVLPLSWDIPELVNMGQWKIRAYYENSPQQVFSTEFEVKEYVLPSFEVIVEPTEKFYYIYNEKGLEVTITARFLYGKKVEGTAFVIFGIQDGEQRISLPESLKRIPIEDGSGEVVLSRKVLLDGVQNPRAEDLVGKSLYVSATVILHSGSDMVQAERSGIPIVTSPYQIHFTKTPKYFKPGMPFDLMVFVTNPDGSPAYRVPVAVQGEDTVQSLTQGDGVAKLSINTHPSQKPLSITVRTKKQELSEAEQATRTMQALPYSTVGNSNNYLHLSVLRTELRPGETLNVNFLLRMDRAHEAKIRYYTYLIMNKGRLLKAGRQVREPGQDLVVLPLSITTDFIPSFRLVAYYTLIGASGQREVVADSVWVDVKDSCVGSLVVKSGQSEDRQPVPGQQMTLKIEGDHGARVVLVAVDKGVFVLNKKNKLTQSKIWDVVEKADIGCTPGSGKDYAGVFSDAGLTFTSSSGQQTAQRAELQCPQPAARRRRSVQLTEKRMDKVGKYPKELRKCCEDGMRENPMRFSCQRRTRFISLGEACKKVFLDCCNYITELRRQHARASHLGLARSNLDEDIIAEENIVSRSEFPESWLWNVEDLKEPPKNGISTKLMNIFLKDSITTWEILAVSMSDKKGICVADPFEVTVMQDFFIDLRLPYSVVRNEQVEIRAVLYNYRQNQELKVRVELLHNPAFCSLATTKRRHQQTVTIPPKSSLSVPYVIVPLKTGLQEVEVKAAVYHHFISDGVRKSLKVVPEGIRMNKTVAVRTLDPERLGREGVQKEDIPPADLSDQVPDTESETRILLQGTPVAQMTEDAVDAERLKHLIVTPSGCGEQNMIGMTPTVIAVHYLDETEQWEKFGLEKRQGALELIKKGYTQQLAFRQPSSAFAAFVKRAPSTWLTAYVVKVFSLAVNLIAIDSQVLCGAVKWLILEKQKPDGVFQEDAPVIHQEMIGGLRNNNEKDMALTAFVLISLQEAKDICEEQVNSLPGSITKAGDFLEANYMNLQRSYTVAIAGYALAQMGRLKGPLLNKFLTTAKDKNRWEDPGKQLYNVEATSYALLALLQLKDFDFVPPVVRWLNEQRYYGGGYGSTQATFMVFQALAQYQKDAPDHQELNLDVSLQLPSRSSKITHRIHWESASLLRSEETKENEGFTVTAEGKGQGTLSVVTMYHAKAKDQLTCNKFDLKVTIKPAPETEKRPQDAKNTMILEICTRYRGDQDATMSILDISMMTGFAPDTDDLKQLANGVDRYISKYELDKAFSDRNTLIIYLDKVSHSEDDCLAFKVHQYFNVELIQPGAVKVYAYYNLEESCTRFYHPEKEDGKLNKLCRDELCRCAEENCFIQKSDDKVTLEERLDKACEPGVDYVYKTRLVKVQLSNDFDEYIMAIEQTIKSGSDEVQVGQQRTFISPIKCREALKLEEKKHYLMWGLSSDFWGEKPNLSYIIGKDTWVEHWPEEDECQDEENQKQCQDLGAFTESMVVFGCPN
Sequence of C3bC4b complex (on EMan, average) C3b+C4b (P01024 23-1663, one chain of several): as above
Sequence of C3bC4b complex (on zymosan, 54,000 C4b/Zym) C3b+C4b (P01024 23-1663, one chain of several): as above

In the case of C4BP (from UniProt P04003), the Kd was 80 nM in test [1]; 5 nM and 2.2 nM in test [2].

B1: C4b-binding protein (C4BP) (protein)
chain 1: NCGPPPTLSFAAPMDITLTETRFKTGTTLKYTCLPGYVRSHSTQTLTCNSDGEWVYNTFCIYKRCRHPGELRNGQVEIKTDLSFGSQIEFSCSEGFFLIGSTTSRCEVQDRGVGWSHPLPQCEIVKCKPPPDIRNGRHSGEENFYAYGFSVTYSCDPRFSLLGHASISCTVENETIGVWRPSPPTCEKITCRKPDVSHGEMVSGFGPIYNYKDTIVFKCQKGFVLRGSSVIHCDADSKWNPSPPACEPNSCINLPDIPHASWETYPRPTKEDVYVVGTVLRYRCHPGYKPTTDEPTTVICQKNLRWTPYQGCEALCCPEPKLNNGEITQHRKSRPANHCVYFYGDEISFSCHETSRFSAICQGDGTWSPRTPSCGDICNFPPKIAHGHYKQSSSYSFFKEEIIYECDKGYILVGQAKLSCSYSHWSAPAPQCKALCRKPELVNGRLSVDKDQYVEPENVTIQCDSGYGVVGPQSITCSGNRTWYPEVPKCEWETPEGCEQVLTGKRLMQCLPNPEDVKMALEVYKLSLEIEQLELQRDSARQSTLDKEL
chain 2: SDAEHCPELPPVDNSIFVAKEVEGQILGTYVCIKGYHLVGKKTLFCNASKEWDNTTTECRLGHCPDPVLVNGEFSSSGPVNVSDKITFMCNDHYILKGSNRSQCLEDHTWAPPFPICKSRDCDPPGNPVHGYFEGNNFTLGSTISYYCEDRYYLVGVQEQQCVDGEWSSALPVCKLIQEAPKPECEKALLAFQESKNLCEAMENFMQQLKESGMTMEELKYSLELKKAELKAKLL
In the case of B1, the Kd in test [3] amounted to 2.1 nM; in test [4] it was 0.95 nM; in test [5], 0.9 nM; in test [6], 0.62 nM.

These data come from PMC2770428 (2010).
